This is an account of results in the Human Domainome abundance scans (Beltran et al. 2025).

Sequences and labels used below:
B1: GA-binding protein alpha chain, residues 172 to 250; numbered along this chain, Q06546 (parent)
chain: GYRKEQERLGIPYDPIQWSTDQVLHWVVWVMKEFSMTDIDLTTLNISGRELCSLNQEDFFQRVPRGEILWSHLELLRKY

± gives the uncertainty stated by the source.

The variants in the data set derive from B1. Kind of data set: abundance fitness (aPCA) (normalised: wild type 0, dead -1); higher = more abundant; growth selection in yeast, the domain comes from the species named. The following applies: Homo sapiens.
On to GYRKEQERLGIPYDPIQWSTDQVLHWVVWVMKEFSMADIDLTTLNISGRELCSLNQEDFFQRVPRGEILWSHLELLRKY, for which the abundance fitness was -0.03 ± 0.065. As to GYRKEQERLGIPYDPIQWSTDQVLHWVVWVMKEFSMWDIDLTTLNISGRELCSLNQEDFFQRVPRGEILWSHLELLRKY, the abundance fitness was -0.115 ± 0.045. Regarding GYRKEQERLGIPYDPIQWSTDQVLHWVVWVMKEFSMCDIDLTTLNISGRELCSLNQEDFFQRVPRGEILWSHLELLRKY, the abundance fitness was -0.044 ± 0.052. To GYRKEQERLGIPYDPIQWSTDQVLHWVVWVMKEFSMKDIDLTTLNISGRELCSLNQEDFFQRVPRGEILWSHLELLRKY belongs 0.039 ± 0.056; to GYRKEQERLGIPYDPIQWSTDQVLHWVVWVMKEFYMTDIDLTTLNISGRELCSLNQEDFFQRVPRGEILWSHLELLRKY, -0.205 ± 0.086. Regarding GYRKEQERLGIPYDPIQWSTDQVLHWVVWVMKEFKMTDIDLTTLNISGRELCSLNQEDFFQRVPRGEILWSHLELLRKY, the abundance fitness is -0.028 ± 0.062.

As to GYRKEQERLGIPYDPIQWSTDQVLHWVVWVMKEFAMTDIDLTTLNISGRELCSLNQEDFFQRVPRGEILWSHLELLRKY, the abundance fitness is -0.086 ± 0.046.

GYRKEQERLGIPYDPIQWSTDQVLHWVVWVMKEFVMTDIDLTTLNISGRELCSLNQEDFFQRVPRGEILWSHLELLRKY: the abundance fitness was -0.165 ± 0.054. Take GYRKEQERLGIPYDPIQWSTDQVLHWVVWVMKEFMMTDIDLTTLNISGRELCSLNQEDFFQRVPRGEILWSHLELLRKY: the abundance fitness was -0.14 ± 0.064. To GYRKEQERLGIPYDPIQWSTDQVLHWVVWVMKEFWMTDIDLTTLNISGRELCSLNQEDFFQRVPRGEILWSHLELLRKY belongs -0.335 ± 0.044; to GYRKEQERLGIPYDPIQWSTDQVLHWVVWVMKEFGMTDIDLTTLNISGRELCSLNQEDFFQRVPRGEILWSHLELLRKY, 0.018 ± 0.034; to GYRKEQERLGIPYDPIQWSTDQVLHWVVWVMKEFPMTDIDLTTLNISGRELCSLNQEDFFQRVPRGEILWSHLELLRKY, -0.091 ± 0.036. To GYRKEQERLGIPYDPIQWSTDQVLHWVVWVMKEFEMTDIDLTTLNISGRELCSLNQEDFFQRVPRGEILWSHLELLRKY belongs -0.035 ± 0.052; to GYRKEQERLGIPYDPIQWSTDQVLHWVVWVMKEFHMTDIDLTTLNISGRELCSLNQEDFFQRVPRGEILWSHLELLRKY, 0.008 ± 0.063. To GYRKEQERLGIPYDPIQWSTDQVLHWVVWVMKEFTMTDIDLTTLNISGRELCSLNQEDFFQRVPRGEILWSHLELLRKY belongs -0.013 ± 0.052.

Take GYRKEQERLGIPYDPIQWSTDQVLHWVVWVMKEFIMTDIDLTTLNISGRELCSLNQEDFFQRVPRGEILWSHLELLRKY: the abundance fitness is -0.781 ± 0.21.

In the case of GYRKEQERLGIPYDPIQWSTDQVLHWVVWVMKEFLMTDIDLTTLNISGRELCSLNQEDFFQRVPRGEILWSHLELLRKY, the abundance fitness is -0.204 ± 0.031. The figure for GYRKEQERLGIPYDPIQWSTDQVLHWVVWVMKEFFMTDIDLTTLNISGRELCSLNQEDFFQRVPRGEILWSHLELLRKY is -0.42 ± 0.086. For the variant GYRKEQERLGIPYDPIQWSTDQVLHWVVWVMKEFQMTDIDLTTLNISGRELCSLNQEDFFQRVPRGEILWSHLELLRKY, the abundance fitness came out at 0.014 ± 0.051. Regarding GYRKEQERLGIPYDPIQWSTDQVLHWVVWVMKEFNMTDIDLTTLNISGRELCSLNQEDFFQRVPRGEILWSHLELLRKY, the abundance fitness is -0.009 ± 0.051. For the variant GYRKEQERLGIPYDPIQWSTDQVLHWVVWVMKEFRMTDIDLTTLNISGRELCSLNQEDFFQRVPRGEILWSHLELLRKY, the abundance fitness is -0.045 ± 0.028. To GYRKEQERLGIPYDPIQWSTDQVLHWVVWVMKEFCMTDIDLTTLNISGRELCSLNQEDFFQRVPRGEILWSHLELLRKY belongs -0.044 ± 0.055. To GYRKEQERLGIPYDPIQWSTDQVLHWVVWVMKENSMTDIDLTTLNISGRELCSLNQEDFFQRVPRGEILWSHLELLRKY belongs 0.081 ± 0.066. GYRKEQERLGIPYDPIQWSTDQVLHWVVWVMKESSMTDIDLTTLNISGRELCSLNQEDFFQRVPRGEILWSHLELLRKY: the abundance fitness was -0.063 ± 0.044. The figure for GYRKEQERLGIPYDPIQWSTDQVLHWVVWVMKEGSMTDIDLTTLNISGRELCSLNQEDFFQRVPRGEILWSHLELLRKY is -0.117 ± 0.033; for GYRKEQERLGIPYDPIQWSTDQVLHWVVWVMKEMSMTDIDLTTLNISGRELCSLNQEDFFQRVPRGEILWSHLELLRKY it is -0.175 ± 0.056; for GYRKEQERLGIPYDPIQWSTDQVLHWVVWVMKETSMTDIDLTTLNISGRELCSLNQEDFFQRVPRGEILWSHLELLRKY it is -0.061 ± 0.054. As to GYRKEQERLGIPYDPIQWSTDQVLHWVVWVMKEHSMTDIDLTTLNISGRELCSLNQEDFFQRVPRGEILWSHLELLRKY, the abundance fitness stood at 0.077 ± 0.073. With GYRKEQERLGIPYDPIQWSTDQVLHWVVWVMKEYSMTDIDLTTLNISGRELCSLNQEDFFQRVPRGEILWSHLELLRKY, the abundance fitness was determined as 0.015 ± 0.098. The figure for GYRKEQERLGIPYDPIQWSTDQVLHWVVWVMKEWSMTDIDLTTLNISGRELCSLNQEDFFQRVPRGEILWSHLELLRKY is -0.092 ± 0.047; for GYRKEQERLGIPYDPIQWSTDQVLHWVVWVMKELSMTDIDLTTLNISGRELCSLNQEDFFQRVPRGEILWSHLELLRKY it is -0.145 ± 0.039. The figure for GYRKEQERLGIPYDPIQWSTDQVLHWVVWVMKEPSMTDIDLTTLNISGRELCSLNQEDFFQRVPRGEILWSHLELLRKY is -0.605 ± 0.056; for GYRKEQERLGIPYDPIQWSTDQVLHWVVWVMKERSMTDIDLTTLNISGRELCSLNQEDFFQRVPRGEILWSHLELLRKY it is -0.035 ± 0.032; for GYRKEQERLGIPYDPIQWSTDQVLHWVVWVMKEKSMTDIDLTTLNISGRELCSLNQEDFFQRVPRGEILWSHLELLRKY it is 0.015 ± 0.072. Regarding GYRKEQERLGIPYDPIQWSTDQVLHWVVWVMKEQSMTDIDLTTLNISGRELCSLNQEDFFQRVPRGEILWSHLELLRKY, the abundance fitness was -0.012 ± 0.08.
